Test results as given in patent publication US9593156B2 (priority 2012, dated 2017).
Values belong to the molecule of their own block, whether it stands above or below them. Ends that are not written are not given here.

Key:
insulin receptor = insulin receptor (Homo sapiens, UniProt P06213); test: Insulin receptor competition binding assay (scintillation proximity); set-up: expressed in transfected cells; plasma membrane fragments
IGF-1 receptor = IGF-1 receptor (Homo sapiens, UniProt P08069); test: IGF-1 receptor competition binding assay (scintillation proximity); set-up: expressed in transfected cells; plasma membrane fragments; conditions: Table 9; IGF-1 Receptor
[1] = target: T1, type A insulin receptor (IR-A) (Homo sapiens, UniProt P06213); test: Receptor kinase activity (phosphorylation) assay, type A insulin receptor; type: cell-based
T1 construct: expressed in transfected cells; host or cells: HEK293

[2] = target: T2, type B insulin receptor (IR-B) (Homo sapiens, UniProt P06213); test: Receptor kinase activity (phosphorylation) assay, type B insulin receptor; type: cell-based
T2 construct: expressed in transfected cells; host or cells: HEK293

Sequence of IGF-1 receptor (P08069 31-736 limits assumed): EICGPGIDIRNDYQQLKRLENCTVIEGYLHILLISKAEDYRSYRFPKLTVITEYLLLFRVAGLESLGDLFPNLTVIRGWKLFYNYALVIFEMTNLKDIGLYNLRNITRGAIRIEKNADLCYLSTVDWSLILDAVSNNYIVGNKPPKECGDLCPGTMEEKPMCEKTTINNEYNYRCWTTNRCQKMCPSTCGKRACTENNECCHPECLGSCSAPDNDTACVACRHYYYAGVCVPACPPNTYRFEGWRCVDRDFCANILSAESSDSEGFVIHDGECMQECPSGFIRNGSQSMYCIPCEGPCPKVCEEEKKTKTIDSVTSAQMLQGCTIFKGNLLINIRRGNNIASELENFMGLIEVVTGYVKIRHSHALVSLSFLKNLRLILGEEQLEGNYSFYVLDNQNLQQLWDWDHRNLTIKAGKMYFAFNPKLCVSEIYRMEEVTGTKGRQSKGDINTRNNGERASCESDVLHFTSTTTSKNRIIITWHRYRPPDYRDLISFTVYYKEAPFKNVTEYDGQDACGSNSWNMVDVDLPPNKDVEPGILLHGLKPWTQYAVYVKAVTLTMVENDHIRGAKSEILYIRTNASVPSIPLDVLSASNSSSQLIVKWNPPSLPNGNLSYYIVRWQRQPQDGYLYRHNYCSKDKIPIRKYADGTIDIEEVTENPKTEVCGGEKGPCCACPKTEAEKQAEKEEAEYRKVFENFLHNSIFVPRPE
Sequence of IGF-1 receptor (P08069 741-1367 partner limits assumed): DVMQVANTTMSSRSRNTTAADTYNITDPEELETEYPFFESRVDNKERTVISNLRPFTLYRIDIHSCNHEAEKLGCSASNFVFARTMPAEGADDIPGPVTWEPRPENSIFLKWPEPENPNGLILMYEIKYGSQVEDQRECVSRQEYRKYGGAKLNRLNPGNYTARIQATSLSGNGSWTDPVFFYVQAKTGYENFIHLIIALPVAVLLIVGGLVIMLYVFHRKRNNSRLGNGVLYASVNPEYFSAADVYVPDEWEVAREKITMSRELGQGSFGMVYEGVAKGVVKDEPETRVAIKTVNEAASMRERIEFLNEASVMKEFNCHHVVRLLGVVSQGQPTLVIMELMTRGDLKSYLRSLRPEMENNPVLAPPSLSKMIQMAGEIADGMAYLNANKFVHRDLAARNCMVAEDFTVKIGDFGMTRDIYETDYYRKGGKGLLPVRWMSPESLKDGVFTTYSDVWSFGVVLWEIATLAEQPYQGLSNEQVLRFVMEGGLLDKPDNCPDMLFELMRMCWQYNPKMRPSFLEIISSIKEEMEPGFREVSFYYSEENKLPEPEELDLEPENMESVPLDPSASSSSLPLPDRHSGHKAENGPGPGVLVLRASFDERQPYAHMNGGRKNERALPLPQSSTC

IC80 (IGF-1 receptor): 62.5 nM
Molecule: CC[C@H](C)[C@H](NC(=O)CN)C(=O)N[C@H](C(=O)N[C@@H](CC(=O)O)C(=O)N[C@@H](CCC(=O)O)C(=O)N[C@H]1CSSC[C@@H]2NC(=O)[C@H](CO)NC(=O)[C@H](CCCNC(=N)N)NC(=O)[C@H](Cc3ccccc3)NC(=O)[C@H](CSSC[C@H](NC(=O)[C@H](CC(C)C)NC(=O)[C@H](Cc3c[nH]cn3)NC(=O)[C@H](CCC(N)=O)NC(=O)[C@H](CC(N)=O)NC(=O)[C@@H](NC(=O)[C@@H](N)Cc3ccccc3)C(C)C)C(=O)NCC(=O)N[C@@H](CO)C(=O)N[C@@H](Cc3c[nH]cn3)C(=O)N[C@@H](CC(C)C)C(=O)N[C@@H](C(C)C)C(=O)N[C@@H](CCC(=O)O)C(=O)N[C@@H](C)C(=O)N[C@@H](CC(C)C)C(=O)N[C@@H](Cc3ccc(O)cc3)C(=O)N[C@@H](CC(C)C)C(=O)N[C@@H](C(C)C)C(=O)N[C@H](C(=O)NCC(=O)N[C@@H](CC(=O)O)C(=O)N[C@@H](CCCNC(=N)N)C(=O)NCC(=O)N[C@@H](Cc3ccccc3)C(=O)N[C@@H](Cc3ccc(O)cc3)C(=O)N[C@@H](Cc3ccccc3)C(=O)N[C@@H](CC(N)=O)C(=O)N[C@@H](CCCCN)C(=O)N3CCC[C@H]3C(=O)N[C@H](C(N)=O)[C@@H](C)O)CSSC[C@@H](C(=O)N[C@@H](C)C(N)=O)NC(=O)[C@H](Cc3ccc(O)cc3)NC(=O)[C@H](CCSC)NC(=O)[C@H](CCC(=O)O)NC(=O)[C@H](CC(C)C)NC(=O)[C@H](CCCNC(=N)N)NC(=O)[C@H](CCCNC(=N)N)NC(=O)[C@H](CC(C)C)NC(=O)[C@H](CC(=O)O)NC2=O)NC1=O)C(C)C [IGF-1 A:In (1-17)-IGF-1 B(18-30)]

% IGF-1 (in test) (IGF-1 receptor): 3.6%
Molecule: CC[C@H](C)[C@H](NC(=O)CN)C(=O)N[C@H](C(=O)N[C@@H](CC(=O)O)C(=O)N[C@@H](CCC(=O)O)C(=O)N[C@H]1CSSC[C@@H]2NC(=O)[C@H](CO)NC(=O)[C@H](CCCNC(=N)N)NC(=O)[C@H](Cc3ccccc3)NC(=O)[C@H](CSSC[C@H](NC(=O)[C@H](CC(C)C)NC(=O)[C@H](Cc3c[nH]cn3)NC(=O)[C@H](CCC(N)=O)NC(=O)[C@H](CC(N)=O)NC(=O)[C@@H](NC(=O)[C@@H](N)Cc3ccccc3)C(C)C)C(=O)NCC(=O)N[C@@H](C)C(=O)N[C@@H](CCC(=O)O)C(=O)N[C@@H](CC(C)C)C(=O)N[C@@H](C(C)C)C(=O)N[C@@H](CC(=O)O)C(=O)N[C@@H](C)C(=O)N[C@@H](CC(C)C)C(=O)N[C@@H](Cc3ccc(O)cc3)C(=O)N[C@@H](CC(C)C)C(=O)N[C@@H](C(C)C)C(=O)N[C@H](C(=O)NCC(=O)N[C@@H](CC(=O)O)C(=O)N[C@@H](CCCNC(=N)N)C(=O)NCC(=O)N[C@@H](Cc3ccccc3)C(=O)N[C@@H](Cc3ccc(O)cc3)C(=O)N[C@@H](Cc3ccccc3)C(=O)N[C@@H](CC(N)=O)C(=O)N[C@@H](CCCCN)C(=O)N3CCC[C@H]3C(=O)N[C@H](C(N)=O)[C@@H](C)O)CSSC[C@@H](C(=O)N[C@@H](C)C(N)=O)NC(=O)[C@H](Cc3ccc(O)cc3)NC(=O)[C@H](CCSC)NC(=O)[C@H](CCC(=O)O)NC(=O)[C@H](CC(C)C)NC(=O)[C@H](CCCNC(=N)N)NC(=O)[C@H](CCCNC(=N)N)NC(=O)[C@H](CC(C)C)NC(=O)[C@H](CC(=O)O)NC2=O)NC1=O)C(C)C [IGF-1 A:In B(1-5)-IGF-1 B(YL) (6-30)]

IR-A ([1]; Table 14): 6.4% | IR-B ([2]; Table 14): 2.1%
Molecule: B1,A14-10K B^1(H5,10Y16L17R29)29:A^1(H8K14N18,21) (chain 1 GPEHLCGAHLVDALYLVCGDRGFYFNKR; chain 2 GIVDECCHRSCDLKRLENYCN) [di-10K-TC]

IR-A ([1]; Table 14): 1.7% | IR-B ([2]; Table 14): 0.2%
Molecule: B1,A14-10K B^1(H5,10Y16L17R29)30-C^1des9-12-A^1(H8,K14,N18,21) (GPEHLCGAHLVDALYLVCGDRGFYFNKRTGYGSSSRRGIVDECCHRSCDLKRLENYCN) [MIU-79]

IR-A ([1]; Table 13): 20.4% | IR-B ([2]; Table 13): 8.4%
Molecule: B^1(H5,10Y16L17)25-C^1-A^1(T8N18,21) (GPEHLCGAHLVDALYLVCGDRGFYGYGSSSRRAPQTGIVDECCTRSCDLRRLENYCN) [Thr,A8]

More lines, now with the values behind:

Molecule: CC[C@H](C)[C@H](NC(=O)CN)C(=O)N[C@H](C(=O)N[C@@H](CC(=O)O)C(=O)N[C@@H](CCC(=O)O)C(=O)N[C@H]1CSSC[C@@H]2NC(=O)[C@H](CO)NC(=O)[C@H](C)NC(=O)[C@H](Cc3c[nH]cn3)NC(=O)[C@H](CSSC[C@H](NC(=O)[C@H](CC(C)C)NC(=O)[C@H](Cc3c[nH]cn3)NC(=O)[C@H](CCC(=O)O)NC(=O)[C@@H]3CCCN3C(=O)CN)C(=O)NCC(=O)N[C@@H](C)C(=O)N[C@@H](CC(=O)O)C(=O)N[C@@H](CC(C)C)C(=O)N[C@@H](C(C)C)C(=O)N[C@@H](CC(=O)O)C(=O)N[C@@H](C)C(=O)N[C@@H](CC(C)C)C(=O)N[C@@H](Cc3ccc(O)cc3)C(=O)N[C@@H](CC(C)C)C(=O)N[C@@H](C(C)C)C(=O)N[C@H](C(=O)NCC(=O)N[C@@H](CC(=O)O)C(=O)N[C@@H](C)C(=O)NCC(=O)N[C@@H](Cc3ccccc3)C(=O)N[C@@H](Cc3ccc(O)cc3)C(N)=O)CSSC[C@@H](C(=O)N[C@@H](CC(N)=O)C(=O)O)NC(=O)[C@H](Cc3ccc(O)cc3)NC(=O)[C@H](CC[S+](C)[O-])NC(=O)[C@H](CCC(=O)O)NC(=O)[C@H](CC(C)C)NC(=O)[C@H](CCCNC(=N)N)NC(=O)[C@H](CCCNC(=N)N)NC(=O)[C@H](CC(C)C)NC(=O)[C@H](CC(=O)O)NC2=O)NC1=O)C(C)C (stereo partly drawn)
% insulin (in test) (insulin receptor): 400.7%

Molecule: CC[C@H](C)[C@H](NC(=O)CNC(=O)[C@@H]1CCCN1C(=O)[C@H](C)N)C(=O)N[C@H](C(=O)N[C@@H](CC(=O)O)C(=O)N[C@@H](CCC(=O)O)C(=O)N[C@H]1CSSC[C@@H]2NC(=O)[C@H](CO)NC(=O)[C@H](CCCNC(=N)N)NC(=O)[C@H](Cc3ccccc3)NC(=O)[C@H](CSSC[C@H](NC(=O)[C@H](CC(C)C)NC(=O)[C@@H](NC(=O)[C@H](CCC(=O)O)NC(=O)[C@@H]3CCCN3C(=O)CN)[C@@H](C)O)C(=O)NCC(=O)N[C@@H](C)C(=O)N[C@@H](CCC(=O)O)C(=O)N[C@@H](CC(C)C)C(=O)N[C@@H](C(C)C)C(=O)N[C@@H](CC(=O)O)C(=O)N[C@@H](C)C(=O)N[C@@H](CC(C)C)C(=O)N[C@@H](Cc3ccc(O)cc3)C(=O)N[C@@H](CC(C)C)C(=O)N[C@@H](C(C)C)C(=O)N[C@H](C(=O)NCC(=O)N[C@@H](CC(=O)O)C(=O)N[C@@H](CCCNC(=N)N)C(=O)NCC(=O)N[C@@H](Cc3ccccc3)C(=O)N[C@@H](Cc3ccc(O)cc3)C(=O)N[C@@H](Cc3ccccc3)C(=O)N[C@@H](CC(N)=O)C(=O)N[C@@H](CCCCN)C(=O)N3CCC[C@H]3C(=O)N[C@H](C(N)=O)[C@@H](C)O)CSSC[C@@H](C(=O)N[C@@H](C)C(N)=O)NC(=O)[C@H](Cc3ccc(O)cc3)NC(=O)[C@H](CCSC)NC(=O)[C@H](CCC(=O)O)NC(=O)[C@H](CC(C)C)NC(=O)[C@H](CCCNC(=N)N)NC(=O)[C@H](CCCNC(=N)N)NC(=O)[C@H](CC(C)C)NC(=O)[C@H](CC(=O)O)NC2=O)NC1=O)C(C)C [IGF1 (Y^B16L^B17) (AlaPro)^A-1,0]
% of Insulin Activity (insulin receptor; Table 8): 37.12%

Molecule: CC[C@H](C)[C@H](NC(=O)CN)C(=O)N[C@H](C(=O)N[C@@H](CC(=O)O)C(=O)N[C@@H](CCC(=O)O)C(=O)N[C@H]1CSSC[C@@H]2NC(=O)[C@H](CO)NC(=O)[C@H](CCCNC(=N)N)NC(=O)[C@H](Cc3ccccc3)NC(=O)[C@H](CSSC[C@H](NC(=O)[C@H](CC(C)C)NC(=O)[C@@H](NC(=O)[C@H](CCC(=O)O)NC(=O)[C@@H]3CCCN3C(=O)CN)[C@@H](C)O)C(=O)NCC(=O)N[C@@H](C)C(=O)N[C@@H](CCC(=O)O)C(=O)N[C@@H](CC(C)C)C(=O)N[C@@H](C(C)C)C(=O)N[C@@H](CC(=O)O)C(=O)N[C@@H](C)C(=O)N[C@@H](CC(C)C)C(=O)N[C@@H](Cc3ccc(O)cc3)C(=O)N[C@@H](CC(C)C)C(=O)N[C@@H](C(C)C)C(=O)N[C@H](C(=O)NCC(=O)N[C@@H](CC(=O)O)C(=O)N[C@@H](CCCNC(=N)N)C(=O)NCC(=O)N[C@@H](Cc3ccccc3)C(=O)N[C@@H](Cc3ccc(O)cc3)C(N)=O)CSSC[C@@H](C(=O)N[C@@H](C)C(N)=O)NC(=O)[C@H](Cc3ccc(O)cc3)NC(=O)[C@H](CCSC)NC(=O)[C@H](CCC(=O)O)NC(=O)[C@H](CC(C)C)NC(=O)[C@H](CCCNC(=N)N)NC(=O)[C@H](CCCNC(=N)N)NC(=O)[C@H](CC(C)C)NC(=O)[C@H](CC(=O)O)NC2=O)NC1=O)C(C)C [IGF-1 A:B (E10Y16L17) DPI]
% IGF-1 (in test) (IGF-1 receptor): 3.3%

Molecule: B1-PEG20K MIU-35 (GPEHLCGAHLVDALYLVCGDRGFYGYGSSSRRAPQTGIVDECCHRSCDLRRLENYCN; not fully specified (N-terminus); ends and bridges not checked; also: PEG20K at B1) [#39]
% Insulin Activity IR-A ([1]; Table 12): 3.1% | IR-A ([1]; Table 13): 4.5% | Phosphorylation (EC50) % IR-A ([1]; Table 17): 4.5% | % Insulin Activity IR-B ([2]; Table 12): 1.1% | IR-B ([2]; Table 13): 1.1% | Phosphorylation (EC50) % IR-B ([2]; Table 17): 1.1%

Molecule: B^1(H5,10Y16L17K29)29-A^1(H8,N18,21) (GPEHLCGAHLVDALYLVCGDRGFYFNKKGIVDECCHRSCDLRRLENYCN) [DP3(SC)]
IR-A ([1]; Table 14): 0.03%

Molecule: B^1(H5,10Y16L17K29)29:A^1(H8,N18,21) (chain 1 GPEHLCGAHLVDALYLVCGDRGFYFNKK; chain 2 GIVDECCHRSCDLRRLENYCN) [DP3(TC)]
IR-A ([1]; Table 14): 159.8% | IR-B ([2]; Table 14): 33.1%

Molecule: B^1(H5,10Y16L17R29)30-C^1des9-12-A^1(H8,K14,N18,21) (GPEHLCGAHLVDALYLVCGDRGFYFNKRTGYGSSSRRGIVDECCHRSCDLKRLENYCN) [DP8Mut3KA14]
IR-A ([1]; Table 14): 132.2% | IR-B ([2]; Table 14): 12.6%

B1: GE5W-B^1(H5,10Y16L17)25-C^1-A^1(A1H8N18,21) (protein)
chain: GEEEEEWGPEHLCGAHLVDALYLVCGDRGFYGYGSSSRRAPQTAIVDECCHRSCDLRRLENYCN
IR-A ([1]; Table 13): 2.1% | IR-B ([2]; Table 13): 0.7%
